Data set [1] deals with T1, IRF4-C99R DBD;JUNB DBD;BATF DBD (human;human;human, UniProt Q15306;P17275;Q16520 20-139;269-329;28-87, C99R||).
T1 sequence 1: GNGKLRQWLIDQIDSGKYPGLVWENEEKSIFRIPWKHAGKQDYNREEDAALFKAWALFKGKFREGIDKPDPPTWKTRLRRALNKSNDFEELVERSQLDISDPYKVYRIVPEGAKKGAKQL
T1 sequence 2: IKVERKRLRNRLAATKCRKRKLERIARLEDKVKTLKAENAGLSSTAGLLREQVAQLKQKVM
T1 sequence 3: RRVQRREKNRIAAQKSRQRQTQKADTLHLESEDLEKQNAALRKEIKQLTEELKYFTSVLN
Kind of data set: EMSA; short or long probe not certain; EMSA: 10 mM HEPES pH 7.9, 70 mM KCl, 5 mM DTT, 1 mM EDTA, 2.5 mM MgCl2, 4% Ficoll, 0.5 mg/ml BSA, 0.1 ug/ml poly(dI-dC); 3-5 ug nuclear extract; temperature not stated. Particulars: protein: recombinant;recombinant;recombinant; copies: 1;1;1; label: 32P-dCTP Klenow end label; 5' overhang 4 nt before Klenow labeling.

Data set [2] deals with T2, IRF4-WT DBD;JUNB DBD;BATF DBD (human;human;human, UniProt Q15306;P17275;Q16520 20-139;269-329;28-87, ||).
T2 sequence 1: T1 sequence 1 with R80C
T2 sequence 2: T1 sequence 2
T2 sequence 3: T1 sequence 3
The description is as above. Particulars: protein: recombinant;recombinant;recombinant; copies: 1;1;1; label: 32P-dCTP Klenow end label; 5' overhang 4 nt before Klenow labeling.

The target in data set [3] is T1, IRF4-C99R DBD;JUNB DBD;BATF DBD. Kind of data set: EMSA; IRF4 composite complex abolished; EMSA: 10 mM HEPES pH 7.9, 70 mM KCl, 5 mM DTT, 1 mM EDTA, 2.5 mM MgCl2, 4% Ficoll, 0.5 mg/ml BSA, 0.1 ug/ml poly(dI-dC); 3-5 ug nuclear extract; temperature not stated. Particulars: protein: recombinant;recombinant;recombinant; copies: 1;1;1; label: 32P-dCTP Klenow end label; 5' overhang 2 nt before Klenow labeling.

Numbering of substitutions follows the chain as printed.

B1: AICE2 (Bcl11b) (dsDNA)
DNA 1: AGCTTAGTGCAGAAATGAGTCAGAGATCAAAGAAG
DNA 2: AGCTCTTCTTTGATCTCTGACTCATTTCTGCACTA
Take B1: the binding result in data set [1] is “binds”.

B2: AICE2FLIP (AICE2 5'TTTC) (dsDNA)
DNA 1: B1 DNA 1 with G12T, A13T, A14T, A15C
DNA 2: B1 DNA 2 with T25G, T26A, T27A, C28A
In the case of B2, the binding result in data set [2] is “no binding”; in data set [1], “binds”.

B3: AICE2 (Bcl11b) short, IRF motif tAcA (dsDNA)
DNA 1: AGTGCATACATGAGTCAGAGATC
DNA 2: AGGATCTCTGACTCATGTATGCA
As to B3, the binding result in data set [3] is “no binding”.

B4: AICE2FLIP short IRFmut (dsDNA)
DNA 1: AGTGCATGTATGAGTCAGAGATC
DNA 2: AGGATCTCTGACTCATACATGCA
In the case of B4, the binding result in data set [3] was “no binding”.

The values are drawn from publication PMC10630337, “Transcriptional reprogramming by mutated IRF4 in lymphoma”.
